The nature of the series: protease stability score; higher = more stable; yeast display proteolysis, trypsin and chymotrypsin.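 Further: relative to predicted unfolded state with 0 unfolded-like and 1 meaning tenfold more protease.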
Regarding “DEATEKAKKAYELWMHSLKTGDEHHLKNLMDPDVRVIIDGVDMHGWEAAHFERRRFDHIHRVHVDHYEFQGNKSIWDGTVDGKVGDKEHRNRRIIIMNVVDGRYKSIHLHVE”, the protease stability score came out at 0.991.

“DEATKDAERIIEMFIRAIETGDEKVFKRLLDPNVRLVVDGKEFHGREKFIEWLRRIDVTHQVHFRLHDSDMQGDKLHLDSSEIHDVKYNGVRFVDHYRVHLQIHKFDGRWHLENIIIR” gave a protease stability score of 1.51.

Consider “DEATKSAEIAVRLLKKTQDTGNEELERKLVDPHVRVDVNGRESHGWEHLVEIIREMRVHSLTVTRSEVQGNKVFNDGILDGEINGVRVHIYIHIIIEKINGQWVIRELRFH”, for which the protease stability score was 0.803.

Sequence “DEDAHLIEHLVHLMLHATNTGDEDILKDLMDPNMKIQIGDKEFHGREEFEEMHRRADHLETTDWKLHSVDIQGDKIHLDTRVDRVIIINGKITREDTRTELDVRKIDGRWVVTRISVE” displayed a protease stability score of 1.27.

In turn, “DEDDDLALHMFELLLHVWTTGDERIMHELLDPHARLDFNGRTFHGREAFIHYMHEIFRHIRINDSTVRHIRVIDGRLDIESHVDIRVGDKRFEMETHLIVLKVDGKWQVTLYKLS” gave a protease stability score of 1.4.

Regarding “DEDDEAAEMAVRFFIEILLTGNENIHSKLLDPNVKVNIGEFESIGRKEVEKTFKEFVHHMWIRHIEVHKWSVYDGQVDVESRLDGQVNGQHVNVEVLIIIVKINGKWFLRSLDFR”, the protease stability score was 1.71.

In turn, “DEDDEAAQEAVKIVEEVTKTGNWRVLLELLDPHTRVHTEHHELHGMEEYVREVQKMMQDFGVTKVEVRFHEIIIIGEKIHMRVTIHVNGVTLDTEVVSLKYNGRWYLHTLRMK” displayed a protease stability score of 1.

The sequence “DEDDEAVKRFIDEFVHSMRTGDEEKLYRLADPHVRSVIDGVEFVGMHWLTTELHHLRVQRLEFEFKDIHFQGDKAHVRGHLILTLHFNGREYVVRREVELIILKINGRWHLHEFIWR” came in with a protease stability score of 1.68.

The sequence “DEDDEDADNAIRLIVHSMLTGNEDFFSRLLDPNVRLDYNGVEFIGREDVVRFWNQMRFEFRVEVRRTSSQGDKVNWDIRLRIILHFNGKRHDRLHDTVLISRKYNGKWHVEQIEVR” came in with a protease stability score of 1.54.

“DEDDEDSEEASRRMVETHLTGDEDKQSKMMDPNVKFLFNGVEFHGWELLHKIWTEFGIKHHQLKSVEVRNINGQVRVHVDGVIDVNGVSLKSELNFVAEKVDGRWRVKRIEIHIR”: the protease stability score amounted to 1.58.

The sequence “DEDDEDTRRLLKLLSDAEETGDEELLRHLADPHVRVHVGDKEWHGWDAFVRFLRHIRIETFHVRRIRVQGDKVDVDGQTVVTINGRRHELKTTIILIKIDGQWVIEKLTIH” showed a protease stability score of 1.79.

Take “DEDDEFERLFWKKWVDALRTGNEEIIRKMVDPNVKIVFNGKELHGREAVDIVLKRIDHIDDIKLRHSRVVDGRVEITTKIHMKVGDKSIDSETHMSFEKIDGRWIITEMFFV”: the protease stability score was 2.59.

Sequence “DEDDEFMKRLAEEVIKNLHTGDWESLVHLMDPNALFEFDGVRNHGREQTDRFWEEVHERYPNVREKWDIHTIDVFNGRAKVDSRITFHFDGRDYVHKSEFHLIVFNGKVKSVHIHIR” registered a protease stability score of 0.158.

“DEDDEHSEEIAKMWMHLVHTGDFDSETKLVDPHVKFKIDGREIIGREVFMQLMIELRHILRDSKIDDLNRQGEFLHVHGQVHGELIIGDKNFEINHKVEFIIIKVNGRWFAHTIIFR” gave a protease stability score of 1.64.

The sequence “DEDDEHTHEMLKLVITAINTGDFEKWRHMADPNVRSDIDGQEVHGRETIIEVWRRIEKELGIENVEVHTRRVEVINGVAHIDGHIRFNGRTHKVRIEVYLINGKIQEFVLSRH” gave a protease stability score of 1.45.

“DEDDEKEKFLLELLLEALKTGDWQIFEDLADPHMKFIFNGREYHGMETFSRLMEEFLKRFPNLRIRRIEIEDHHKQGNKVELDARLYSSQGNKRLNHKMILISEKINGRWLIHSLSIE” had a protease stability score of 2.61.

“DEDDELAERFFRFWLEFVLTGDEDSSSHLLDPDVRTKYNGVDFHGMESHSKLLLELRIKDFRFTRIRIINGRLEIHGRMHQEIDGKKVDTTVTIDSIKINGKWRVKTINIG” yielded a protease stability score of 1.73.

“DEDDELEDKFEEILRYSLHTGDWEEWRKRVDPHVKLIINGREIIGMERAAKFFIDLERKLGVDVKHHEIRHEDKQGDKLHLETRVELRQGDKVIILHMHLHLEKINGQWIIREVRFD” came in with a protease stability score of 1.47.

For the origin of these results see the NTF2 design screens of Basanta et al. (2020).
